Where “and” joins values, the source holds several entries; their conditions need not be identical. Equal values may be shown once.

The target of this test is T1, Recombinant human CD28 (R&D Systems) (human, UniProt P10747 19-152).
T1 construct: Coated on microtiter plates at 1 ug/mL; also called recombinant CD28
In words: ELISA on immobilized recombinant human CD28, purified Mono28Fc.

B1: Mono28Fc, recombinant monovalent antibody derived from the anti-CD28 antibody CD28.3 (heterodimer VH-CH2CH3 + VL-CH2CH3, human IgG1 CH2-CH3) (antibody, V domains shown)
VH: VKLQQSGAELVKPGASVRLSCKASGYTFTEYIIHWIKLRSGQGLEWIGWFYPGSNDIQYNAKFKGKATLTADKSSSTVYMELTGLTSEDSAVYFCARRDDFSGYDALPYWGQGTMVTVSS
VL: DIQMTQSPASLSVSVGETVTITCRTNENIYSNLAWYQQKQGKSPQLLIYAATHLVEGVPSRFSGSGSGTQYSLKITSLQSEDFGNYYCQHFWGTPCTFGGGTKLEIKR
notes: Expressed in COS cells from pSecTag2B with the mouse Ig kappa leader (cleaved on secretion); also called co-transfection with pSec-VH-Fc(CH2-CH3) and pSec-VL-Fc(CH2-CH3)
What is called EC50 is the midpoint of the concentration-response curve. As for B1, the half-maximal effective concentration (EC50) was 0.1 µg/mL and 1.16 nM.

(Values after patent US20170166643A1 (OSE IMMUNOTHERAPEUTICS, published 2017).)
